Assay results: IntAct's records for PubMed 25218436
Each block holds one substance with its values, some of them ahead of it.

Tests used:
cblb_human CBLB [1] = target: cblb_human CBLB (UniProt Q13191)
cblb_human CBLB [2] = target: cblb_human CBLB (UniProt Q13191); remark: listed apart in the source
cblb_human CBLB [3] = target: cblb_human CBLB (UniProt Q13191); remark: listed apart in the source
cblb_human CBLB [4] = target: cblb_human CBLB (UniProt Q13191); remark: listed apart in the source

cblb_human CBLB, sequence (Q13191 whole entry): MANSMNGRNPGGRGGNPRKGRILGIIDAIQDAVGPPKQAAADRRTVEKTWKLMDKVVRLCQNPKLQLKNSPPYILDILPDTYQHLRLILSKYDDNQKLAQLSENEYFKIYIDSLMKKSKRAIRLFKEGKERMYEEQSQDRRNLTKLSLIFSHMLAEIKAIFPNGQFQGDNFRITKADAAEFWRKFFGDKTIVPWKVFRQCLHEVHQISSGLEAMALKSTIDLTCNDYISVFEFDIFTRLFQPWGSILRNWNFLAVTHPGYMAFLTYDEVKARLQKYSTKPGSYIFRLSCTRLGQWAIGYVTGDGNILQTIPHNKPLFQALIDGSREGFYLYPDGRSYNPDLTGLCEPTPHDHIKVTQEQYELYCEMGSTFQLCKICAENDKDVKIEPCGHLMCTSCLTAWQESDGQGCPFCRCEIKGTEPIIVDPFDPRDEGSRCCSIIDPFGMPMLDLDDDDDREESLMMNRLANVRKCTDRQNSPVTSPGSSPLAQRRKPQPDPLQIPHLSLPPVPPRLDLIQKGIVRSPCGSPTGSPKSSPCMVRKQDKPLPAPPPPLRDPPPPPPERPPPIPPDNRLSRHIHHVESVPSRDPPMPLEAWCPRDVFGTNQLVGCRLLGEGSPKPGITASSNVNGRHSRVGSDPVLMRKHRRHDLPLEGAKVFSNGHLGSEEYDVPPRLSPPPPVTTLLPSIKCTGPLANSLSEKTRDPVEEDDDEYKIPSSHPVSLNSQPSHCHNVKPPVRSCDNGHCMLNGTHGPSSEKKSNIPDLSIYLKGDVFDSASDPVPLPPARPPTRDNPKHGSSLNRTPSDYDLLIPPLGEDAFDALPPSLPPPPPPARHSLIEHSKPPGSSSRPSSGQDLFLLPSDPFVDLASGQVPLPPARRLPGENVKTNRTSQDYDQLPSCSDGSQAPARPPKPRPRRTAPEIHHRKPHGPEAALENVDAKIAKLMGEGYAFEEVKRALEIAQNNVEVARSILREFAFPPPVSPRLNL

effect of a mutation on the interaction (cblb_human CBLB [1]): disrupting interaction
Substance: SH2/SH3 adapter protein NCK1 (Homo sapiens) (from UniProt P16333) W38K

effect of a mutation on the interaction (cblb_human CBLB [2]): disrupting interaction
Substance: SH2/SH3 adapter protein NCK1 (Homo sapiens) (from UniProt P16333) W38K;W143K;W229K

effect of a mutation on the interaction (cblb_human CBLB [3]): disrupting interaction
Substance: SH2/SH3 adapter protein NCK1 (Homo sapiens) (from UniProt P16333) W143K

effect of a mutation on the interaction (cblb_human CBLB [4]): disrupting interaction
Substance: SH2/SH3 adapter protein NCK1 (Homo sapiens) (from UniProt P16333) W229K
